This sample holds only a part of the variants without activity.
Key:
biotinyl-Val-oxazolone = assay: self-aminoacylation, catalytic enhancement (BVO) (fold over background); higher = more active; k-Seq, kA / k0A0; sequences stand for … in GGGAAUGGAUCCACAUCUACGAAUUC…UUCACUGCAGACUUGACGAAGCUG
Procedure, shortened: (§1)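 Working in 50 μL HEPES/NaCl/KCl/MgCl2/CaCl2 buffer with 5% acetonitrile at pH 6.9–7.0, mutagenized RNA pools (0.43 μM; 21-nt variable region) were reacted with 2–1250 μM of each biotinyl-aminoacyl-oxazolone for 90 minutes at room temperature. Streptavidin capture followed, with quantification by triplicate qPCR and Illumina sequencing. Catalytic enhancement is reported as median kA over the uncatalyzed rate, the low-activity peak of a bimodal Gaussian fit to the data.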

biotinyl-Leu-oxazolone = assay: self-aminoacylation, catalytic enhancement (BLO) (fold over background); higher = more active; k-Seq, kA / k0A0; sequences stand for … in GGGAAUGGAUCCACAUCUACGAAUUC…UUCACUGCAGACUUGACGAAGCUG
Procedure, shortened: as §1

biotinyl-Phe-oxazolone = assay: self-aminoacylation, catalytic enhancement (BFO) (fold over background); higher = more active; k-Seq, kA / k0A0; sequences stand for … in GGGAAUGGAUCCACAUCUACGAAUUC…UUCACUGCAGACUUGACGAAGCUG
Procedure, shortened: as §1

biotinyl-Trp-oxazolone = assay: self-aminoacylation, catalytic enhancement (BWO) (fold over background); higher = more active; k-Seq, kA / k0A0; sequences stand for … in GGGAAUGGAUCCACAUCUACGAAUUC…UUCACUGCAGACUUGACGAAGCUG
Procedure, shortened: as §1

biotinyl-Met-oxazolone = assay: self-aminoacylation, catalytic enhancement (BMO) (fold over background); higher = more active; k-Seq, kA / k0A0; sequences stand for … in GGGAAUGGAUCCACAUCUACGAAUUC…UUCACUGCAGACUUGACGAAGCUG
Procedure, shortened: as §1

biotinyl-Ile-oxazolone = assay: self-aminoacylation, catalytic enhancement (BIO) (fold over background); higher = more active; k-Seq, kA / k0A0; sequences stand for … in GGGAAUGGAUCCACAUCUACGAAUUC…UUCACUGCAGACUUGACGAAGCUG
Procedure, shortened: as §1

| Sequence | self-aminoacylation (biotinyl-Val-oxazolone) | self-aminoacylation (biotinyl-Leu-oxazolone) | self-aminoacylation (biotinyl-Phe-oxazolone) | self-aminoacylation (biotinyl-Trp-oxazolone) | self-aminoacylation (biotinyl-Met-oxazolone) | self-aminoacylation (biotinyl-Ile-oxazolone) |
| --- | --- | --- | --- | --- | --- | --- |
| AGUUCCCUGGUCAUCGAGUGA [Fam2.1 aminoacylation ribozyme variant] | 5 | 9.8 | 43.9 | 10.9 | 7.95 | 4.54 |
| CCACACUUCAAGGAAUCAGUC [Fam1B.1 aminoacylation ribozyme variant] | 0.757 | 0.62 | 2.49 | 1.08 | 0.614 | 0.668 |
| AAGGGUGCUAAUAGUCGCAAG [Fam3.1 aminoacylation ribozyme variant] | 1.36 | 1.5 | 6.2 | 2.93 | 1.74 | 1.72 |
| CUUCACCUCGGUCAUCGGGUG [Fam2.2 aminoacylation ribozyme variant] | 4.37 | 5.57 | 44.6 | 5.07 | 5.17 | 3.54 |
| GAGUUUGCUAAUAUUCGCAAG [Fam3.1 aminoacylation ribozyme variant] | 1.36 | 1.46 | 1.73 | 1.62 | 1.45 | 2.04 |
| CUACUUCAAACAGUCGGCCUG [Fam1A.1 aminoacylation ribozyme variant] | 1.71 | 1.78 | 2.1 | 1.39 | 1.77 | 1.63 |
| AUUCACCUAGGUCAGUGGGUG [Fam2.2 aminoacylation ribozyme variant] | 0.999 | 1.26 | 1.08 | 0.885 | 1 | 0.904 |
| UAGUUUGCUAAUAGUCGCAAC [Fam3.1 aminoacylation ribozyme variant] | 1.31 | 1.06 | 1.43 | 1.34 | 1.18 | 1.25 |
| AGUACCCUGGUCAUCGAGAGA [Fam2.1 aminoacylation ribozyme variant] | 0.901 | 1.14 | 1.36 | 0.788 | 0.888 | 0.994 |
| CCACACCUCAAGCAAUCGGUG [Fam1B.1 aminoacylation ribozyme variant] | 3.17 | 7.12 | 32.5 | 5.99 | 5.05 | 3.55 |
| UUUCACCUAGGUCAUCGGGUG [Fam2.2 aminoacylation ribozyme variant] | 8.76 | 19.5 | 103 | 13.4 | 15.9 | 9.15 |
| UUUACCAUGGUCAUCGAGUGA [Fam2.1 aminoacylation ribozyme variant] | 4.57 | 7.39 | 20.9 | 9.91 | 7.28 | 4.43 |
| CCACACCUAAAGCAAUCGGUC [Fam1B.1 aminoacylation ribozyme variant] | 1.31 | 1.02 | 1.09 | 1.01 | 0.876 | 1 |
| CUACCUCAAACAAUCGGUCUC [Fam1A.1 aminoacylation ribozyme variant] | 1.07 | 0.752 | 2.7 | 1.42 | 0.879 | 0.869 |
| AUUCACCUAGGGCAUCGGGAG [Fam2.2 aminoacylation ribozyme variant] | 1.04 | 1.1 | 0.472 | 1.08 | 0.855 | 1.07 |
| CCACACUACAAGCAAUCGGCC [Fam1B.1 aminoacylation ribozyme variant] | 2.06 | 1.57 | 1.99 | 1.78 | 2.7 | 2.44 |
| CUACUGGAAACAAUCGGUCUG [Fam1A.1 aminoacylation ribozyme variant] | 0.837 | 0.885 | 0.507 | 0.514 | 0.933 | 0.887 |
| AUCCAGCUAGGUCAUCGGGUG [Fam2.2 aminoacylation ribozyme variant] | 6.15 | 6.74 | 47.5 | 7.36 | 5.63 | 4.76 |
| AUUCCACUGGUCAUCGAGUGA [Fam2.1 aminoacylation ribozyme variant] | 3.82 | 6.67 | 28.1 | 7.09 | 5.86 | 3.72 |
| AAAUUUACUAAUAGUCGCAAG [Fam3.1 aminoacylation ribozyme variant] | 2.21 | 1.89 | 3.14 | 2.31 | 2.27 | 2.35 |
| AUUACCCUGGACAUCGGGUGA [Fam2.1 aminoacylation ribozyme variant] | 7.46 | 10.2 | 29.7 | 7.69 | 9.33 | 7.02 |
| AUUCACCAAGGUCAUCUGGUG [Fam2.2 aminoacylation ribozyme variant] | 2.29 | 5.5 | 28 | 3.52 | 3.53 | 2.38 |
| AUUCACCUAAGUGAUCGGGUG [Fam2.2 aminoacylation ribozyme variant] | 1.77 | 2.94 | 9.9 | 2 | 2.25 | 1.65 |
| AUGACCCUGGUCAUAGAGUGA [Fam2.1 aminoacylation ribozyme variant] | 3.59 | 6.95 | 46.6 | 6.89 | 7.12 | 3.35 |
| AUUCACCUGGGUCAUUGGGUG [Fam2.2 aminoacylation ribozyme variant] | 4.03 | 6.07 | 31.1 | 4.15 | 4.52 | 3.51 |
| GAUUUUGCUAAUAGUCGCAAG [Fam3.1 aminoacylation ribozyme variant] | 1.83 | 1.82 | 2.53 | 2.99 | 2.2 | 1.99 |

| Sequence | self-aminoacylation (biotinyl-Val-oxazolone) | self-aminoacylation (biotinyl-Leu-oxazolone) | self-aminoacylation (biotinyl-Phe-oxazolone) | self-aminoacylation (biotinyl-Trp-oxazolone) | self-aminoacylation (biotinyl-Met-oxazolone) | self-aminoacylation (biotinyl-Ile-oxazolone) |
| --- | --- | --- | --- | --- | --- | --- |
| ACACACUCCAAGCAAUCGGUC [Fam1B.1 aminoacylation ribozyme variant] | 0.924 | 0.864 | 1.92 | 0.999 | 0.768 | 0.959 |
| AAUUUUGCUAAUAGUCGAAAG [Fam3.1 aminoacylation ribozyme variant] | 0.991 | 1.2 | 3.69 | 2.11 | 1.16 | 1.56 |
| CCUCACUUCAAGCAAUCAGUC [Fam1B.1 aminoacylation ribozyme variant] | 0.921 | 1.01 | 21.2 | 6.56 | 0.83 | 0.781 |
| AUUCACAUAGGUCAUCGCGUG [Fam2.2 aminoacylation ribozyme variant] | 7.84 | 17.6 | 108 | 12.1 | 14 | 7.23 |
| CCACACUUCACGCAAUCGGUG [Fam1B.1 aminoacylation ribozyme variant] | 3.5 | 7.74 | 52.2 | 6.24 | 5.89 | 3.09 |
| AAAUUUGCUAAUAGUCGCAAU [Fam3.1 aminoacylation ribozyme variant] | 2.13 | 2.33 | 2.52 | 3.09 | 2.35 | 2.71 |
| CUACUUCAAACAAACGGUCAG [Fam1A.1 aminoacylation ribozyme variant] | 0.682 | 0.581 | 0.883 | 0.787 | 0.6 | 0.73 |
| AUACACCUAGGCCAUCGGGUG [Fam2.2 aminoacylation ribozyme variant] | 2.32 | 3.51 | 12.9 | 3.66 | 2.42 | 2.73 |
| AUUCAACUAGGUCAUCGGGUG [Fam2.2 aminoacylation ribozyme variant] | 3.47 | 7.19 | 40.6 | 5.46 | 5.65 | 3.6 |
| AUUACUCUGGUCAUCGAGAGA [Fam2.1 aminoacylation ribozyme variant] | 0.908 | 0.713 | 1.03 | 0.523 | 0.867 | 0.907 |
| AUUCACGUAGGUCGUCGGGUG [Fam2.2 aminoacylation ribozyme variant] | 3.81 | 2.35 | 9.34 | 2.44 | 2.48 | 2.61 |
| GCACAAUUCAAGCAAUCGGUC [Fam1B.1 aminoacylation ribozyme variant] | 1.94 | 1.79 | 3.04 | 3.3 | 1.81 | 2.1 |
| CCACACUUCAAGCAAUAGCUC [Fam1B.1 aminoacylation ribozyme variant] | 0.816 | 0.941 | 0.859 | 0.427 | 0.708 | 0.691 |
| AGUCACCUAGGUCAUCGGUUG [Fam2.2 aminoacylation ribozyme variant] | 1.71 | 2.12 | 10.1 | 1.82 | 1.99 | 1.83 |
| UUUACCCUGGUCAUCGAUUGA [Fam2.1 aminoacylation ribozyme variant] | 1.13 | 1.08 | 0.947 | 1.09 | 0.837 | 1.06 |
| CUUCUUCAAACAUUCGGUCUG [Fam1A.1 aminoacylation ribozyme variant] | 1.23 | 1.26 | 1.05 | 1.39 | 1.15 | 1.03 |
| CUUCACCUAGGUUAUCGGGUG [Fam2.2 aminoacylation ribozyme variant] | 3.51 | 4.8 | 12.2 | 3.63 | 5.11 | 3.13 |
| AUUCACCUAGGUCAUCGUGUC [Fam2.2 aminoacylation ribozyme variant] | 0.474 | 0.498 | 0.307 | 0.514 | 0.403 | 0.461 |
| AUUCACAGAGGUCAUCGGGUG [Fam2.2 aminoacylation ribozyme variant] | 5.02 | 7.94 | 45.9 | 6.32 | 6.99 | 4.48 |
| AUUAGCCGGGUCAUCGAGUGA [Fam2.1 aminoacylation ribozyme variant] | 4.51 | 6.37 | 40.5 | 7.69 | 6.22 | 3.91 |
| AAGUUUGCUAAUGAUCGCAAG [Fam3.1 aminoacylation ribozyme variant] | 0.603 | 0.52 | 0.952 | 0.749 | 0.488 | 0.697 |
| AAAUUUGCUAAAAGUCGCAAG [Fam3.1 aminoacylation ribozyme variant] | 1.75 | 2.26 | 2.5 | 2.75 | 1.93 | 2.08 |
| AUUACCCUGGUCAUCGCGUAA [Fam2.1 aminoacylation ribozyme variant] | 3.48 | 2.97 | 28.4 | 5.11 | 4.04 | 2.73 |
| AUUUACCUAGGUCAUGGGGUG [Fam2.2 aminoacylation ribozyme variant] | 2.85 | 6.06 | 25.7 | 4.29 | 4.54 | 3.3 |
| CUUCUUCUAACAAUCGGUCUG [Fam1A.1 aminoacylation ribozyme variant] | 0.729 | 0.571 | 0.727 | 0.581 | 0.623 | 0.732 |
